# Data reported in EP4721730A1, “PHARMACEUTICAL COMPOSITION COMPRISING SUSTAINED-RELEASE MICROSPHERE COMPRISING CAGRILINTIDE OR PHARMACEUTICALLY ACCEPTABLE SALT THEREOF AND PREPARATION METHOD THEREFOR” (G2GBIO, Inc., priority 2023, dated 2024).
# Assay: Pharmacokinetics of a single-dose subcutaneous administration using SD rats (concentration of cagrilintide in blood)
# Format: in vivo
# Conditions: s.c. 1.2 mg/head
# Method: In order to evaluate a potential of the microsphere according to the present invention as a sustained-release therapeutic agent, the concentration of the cagrilintide in rat blood was measured by the following method.
# Specifically, the microsphere was measured so that a dosage of the cagrilintide becomes 1.2 mg/head (API raw material solution, Example 5-6) or 3.6 mg/head (Comparative Examples 1 to 2, Examples 1-1 to 1-3, Example 5-1), dispersed in 0.5 mL of a suspension, and then subcutaneously injected into SD rats. 0.25 to 0.5 mL of blood was collected at prescheduled times and the concentration of the cagrilintide in blood was measured using HPLC.
substance,measurement,setting,value
cagrilintide [API raw material solution],cumulative blood concentration,"day 0, cagrilintide",0.0%
same,cumulative blood concentration,"day 0.042, cagrilintide",0.2%
same,cumulative blood concentration,"day 0.250, cagrilintide",4.5%
same,cumulative blood concentration,"day 1, cagrilintide",35.2%
same,cumulative blood concentration,"day 4, cagrilintide",91.1%
same,cumulative blood concentration,"day 7, cagrilintide",100.0%
